Experimental data taken from US7037667.

Test system: fluorescein thiocarbamoyl-labeled (FTC) casein

Chain of GST-TMPRSS2 protease domain (AA 255-492) (chain, as listed by the source): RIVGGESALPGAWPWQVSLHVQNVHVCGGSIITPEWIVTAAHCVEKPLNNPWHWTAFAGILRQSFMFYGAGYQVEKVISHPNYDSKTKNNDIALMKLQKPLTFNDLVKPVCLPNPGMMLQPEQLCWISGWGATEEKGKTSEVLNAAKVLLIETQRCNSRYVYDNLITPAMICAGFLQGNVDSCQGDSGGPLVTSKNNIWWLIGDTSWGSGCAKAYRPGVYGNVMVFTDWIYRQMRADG

GST-TMPRSS2 protease domain (AA 255-492)
protease activity, fluorescence of FTC-casein (EnzChek protease assay): purified recombinant GST-20P1F12/TMPRSS2 can cleave a universal substrate, namely casein in a dose dependent manner
